From patent US20100273676A1 (GENERAL HOSPITAL, published 2010)
Ends that are not written are not given here. * marks the point of attachment. FITC = O=C1OC2(c3ccc(O)cc3Oc3cc(O)ccc32)c2ccc(NC(=S)*)cc21

Legend:
[1] = biological target: T1, GST-tagged CgGal11Ap KIX domain (amino acids 1-86) (C. glabrata, UniProt P08515 1-218 = GST); test: fluorescence anisotropy/polarization, FITC peptide with increasing GST-CgGal11Ap KIX
[2] = biological target: GST (glutathione S-transferase) (UniProt P08515 1-218 = GST); test: fluorescence polarization
[3] = biological target: T1, GST-tagged CgGal11Ap KIX domain (amino …); test: fluorescence polarization, salt and pH adjusted
[4] = biological target: T1, GST-tagged CgGal11Ap KIX domain (amino …); test: fluorescence polarization, FITC peptide with increasing GST-CgGal11Ap KIX

T1 sequence (P08515 whole entry, the tested form may be a part): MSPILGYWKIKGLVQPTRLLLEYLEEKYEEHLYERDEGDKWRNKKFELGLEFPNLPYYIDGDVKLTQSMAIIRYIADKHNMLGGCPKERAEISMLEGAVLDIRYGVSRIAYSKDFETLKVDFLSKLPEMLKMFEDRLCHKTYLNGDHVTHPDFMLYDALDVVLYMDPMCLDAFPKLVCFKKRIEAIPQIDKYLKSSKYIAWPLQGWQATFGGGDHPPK
Sequence of GST (glutathione S-transferase) (P08515 whole entry, the tested form may be a part): as above

B1: Fluorescein-conjugated 15-amino acid CgPdr1pAD peptide (FITC-LYNSLWGDLFSDVYL) (peptide)
peptide: {FITC}-LYNSLWGDLFSDVYL
notes: also called short Fluorescein-tagged CgPdr1pAD peptide
[1]
  Kd: ~210000 nM

B2: FITC-CgPdr1pAD-30 (FITC-LGTLDEFVNKGDLNELYNSLWGDLFSDVYL) (peptide)
peptide: {FITC}-LGTLDEFVNKGDLNELYNSLWGDLFSDVYL
notes: also called FITC-labled-CgPdr1pAD-30; Fluorescein-tagged CgPdr1pAD-30 peptide
[2]
  binding result: no binding
[3]
  Kd: ~700 nM
[4]
  Kd: ~780 nM
[1]
  Kd: ~2000 nM
